Results: patent US20220348665A1 (ABL BIO, published 2022)
Positions count from the first letter of the chain named. Several values for one entry are separate records, joined by “and”; a condition that tells them apart may be missing. Equal values may be shown once. Read-outs that look alike come from different tables or passages of the source. Each block holds one binder with its values, some of them ahead of it.

Columns and labels:
[1] = target: T1, alpha-synuclein aggregates (human alpha-synuclein, fibril) (human, UniProt P37840 1-140); experiment: SPR (BIAcore T200), antibody captured on protein A chip, 1:1 model
[2] = target: T1, alpha-synuclein aggregates (human …); experiment: SPR (BIAcore T200), antibody captured on Protein A chip, alpha-synuclein fibril as analyte (file ProteinA-Fibril-main-5th), 25 C, fit 1:1 Binding
[3] = target: T1, alpha-synuclein aggregates (human …); experiment: sandwich ELISA: antibody coated at 0.04 to 400 nM, 2000 ng/ml alpha-synuclein aggregates, biotin-conjugated antibody and HRP-streptavidin; value is C of the 4-P fit table under the plot, which the text calls EC50
[4] = target: T1, alpha-synuclein aggregates (human …); experiment: ELISA on alpha-synuclein aggregates coated at 1 ug/ml, antibody 5-fold dilutions from 400 nM, anti-human Fc-HRP; value is C of the 4-P fit table under the plot
[5] = target: T1, alpha-synuclein aggregates (human …); experiment: ELISA on coated alpha-synuclein aggregates, antibody 5-fold dilutions from 400 nM, anti-human Fc-HRP; value is C of the 4-P fit table under the plot
[6] = target: T2, monkey IGF1R, recombinant, His tag at C-terminus (monkey); experiment: ELISA, monkey IGF1R coated, anti-human Fab HRP
T2 construct: also called Monkey IGF1R (National Research Council Canada)

[7] = target: T1, alpha-synuclein aggregates (human …); experiment: SPR (BIAcore T200), antibody captured on Protein A chip, alpha-synuclein fibril as analyte (file ProteinA-Fibril-main-5th), 25 C, fit 1:1 Binding; remark: listed apart in the source
[8] = target: T3, human IGF1R, endogenous, on the surface of breast cancer cell lines (MCF-7, JIMT-1, BT474) (human, UniProt P08069 31-1367); experiment: FACS on MCF-7 cells, antibody 10 ug/mL (2nd Ab only 2.86, not treated 1.88)
T3 construct: also called endogenous IGF1R on the cell surface; MCF-7 cell line

[9] = target: T4, mouse IGF1R on bEND.3 mouse brain endothelial cells (mouse, UniProt Q60751 31-1373); experiment: FACS on bEND.3 mouse brain endothelial cells
T4 construct: whole, on cells; also called IGF1R expressed on the surface of brain endothelial cells
T4 sequence (Q60751 31-1373): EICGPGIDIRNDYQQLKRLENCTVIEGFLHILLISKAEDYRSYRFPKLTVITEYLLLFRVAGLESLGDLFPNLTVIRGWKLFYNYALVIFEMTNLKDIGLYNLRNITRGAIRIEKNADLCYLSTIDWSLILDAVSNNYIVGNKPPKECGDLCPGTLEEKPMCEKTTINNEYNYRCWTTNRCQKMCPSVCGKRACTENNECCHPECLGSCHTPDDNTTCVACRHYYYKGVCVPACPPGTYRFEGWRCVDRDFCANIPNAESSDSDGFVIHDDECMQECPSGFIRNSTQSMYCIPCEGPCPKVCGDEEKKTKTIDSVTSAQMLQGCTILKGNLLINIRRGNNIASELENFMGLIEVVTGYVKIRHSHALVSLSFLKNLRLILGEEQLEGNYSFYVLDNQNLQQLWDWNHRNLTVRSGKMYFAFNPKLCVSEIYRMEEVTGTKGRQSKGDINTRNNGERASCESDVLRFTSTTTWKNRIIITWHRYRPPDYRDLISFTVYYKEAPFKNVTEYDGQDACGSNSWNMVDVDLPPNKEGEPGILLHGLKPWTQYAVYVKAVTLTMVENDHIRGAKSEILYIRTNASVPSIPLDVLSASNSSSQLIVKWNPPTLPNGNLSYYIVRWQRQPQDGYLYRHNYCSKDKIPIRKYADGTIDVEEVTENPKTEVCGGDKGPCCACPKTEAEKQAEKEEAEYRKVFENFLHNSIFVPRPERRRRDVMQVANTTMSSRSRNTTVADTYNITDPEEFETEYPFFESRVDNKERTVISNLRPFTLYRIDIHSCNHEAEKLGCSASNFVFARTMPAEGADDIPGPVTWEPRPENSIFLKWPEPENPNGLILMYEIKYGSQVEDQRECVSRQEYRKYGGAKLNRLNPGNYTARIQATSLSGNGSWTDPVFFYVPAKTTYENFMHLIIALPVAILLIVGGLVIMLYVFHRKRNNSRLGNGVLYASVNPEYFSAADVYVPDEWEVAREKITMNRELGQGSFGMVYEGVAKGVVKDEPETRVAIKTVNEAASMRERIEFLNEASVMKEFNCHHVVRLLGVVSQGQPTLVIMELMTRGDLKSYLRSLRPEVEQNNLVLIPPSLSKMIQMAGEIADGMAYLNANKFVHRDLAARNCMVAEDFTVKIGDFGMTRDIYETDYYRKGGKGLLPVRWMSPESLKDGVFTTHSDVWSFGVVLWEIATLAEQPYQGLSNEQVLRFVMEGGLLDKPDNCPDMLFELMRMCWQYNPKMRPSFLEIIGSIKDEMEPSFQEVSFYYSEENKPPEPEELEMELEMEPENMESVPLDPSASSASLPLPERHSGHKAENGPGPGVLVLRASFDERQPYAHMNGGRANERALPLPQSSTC

[10] = target: T1, alpha-synuclein aggregates (human …); experiment: SPR (BIAcore T200), antibody captured on Protein A chip, alpha-synuclein fibril as analyte (file ProteinA-Fibril-main-5th), 25 C, fit 1:1 Binding; remark: listed apart in the source
[11] = target: T1, alpha-synuclein aggregates (human …); experiment: sandwich ELISA, antibody coated, aggregates 2000 ng/ml
[12] = target: T5, human IGF1R extracellular domain, recombinant, His tag at C-terminus (human, UniProt P08069 31-932); experiment: ELISA on coated IGF1R, antibody 5-fold dilutions from 400 nM, anti-human Fc-HRP; C of the 4-P fit (D 0.945, R^2 0.985), extrapolated: curve at baseline up to 16 nM, about 0.2 at 80 nM and about 0.75 at 400 nM, no plateau; the text says this monospecific antibody did not bind
T5 construct: also called human IGF1R ECD; ECD of IGF1R

[13] = target: T5, human IGF1R extracellular domain, …; experiment: ELISA on coated IGF1R, antibody 5-fold dilutions from 400 nM, anti-human Fc-HRP; C of the 4-P fit (D 2.68), extrapolated: curve at baseline up to about 3 nM, about 0.8 at 80 nM and about 1.75 at 400 nM, no plateau; the text says this monospecific antibody did not bind
[14] = target: T5, human IGF1R extracellular domain, …; experiment: SPR (Biacore T200), His-tagged human IGF1R ECD captured by anti-His antibody on CM4 chip, 1564 IgG as analyte, 25 C, fit Bivalent Analyte; lower panel
[15] = target: T5, human IGF1R extracellular domain, …; experiment: SPR (Biacore T200), His-tagged human IGF1R ECD captured by anti-His antibody on CM4 chip, 1564 IgG as analyte, 25 C, fit Bivalent Analyte; upper panel
[16] = target: T5, human IGF1R extracellular domain, …; experiment: ELISA, human IGF1R coated, anti-human Fab HRP
[17] = target: T5, human IGF1R extracellular domain, …; experiment: SPR (Biacore T200), His-tagged human IGF1R ECD captured by anti-his antibody on CM4 chip, bivalent model

B1: hu11F11(ver.4) (antibody, human IgG1, V domains shown)
VH: EVQLVESGGGLVQPGGSLRLSCATSGFTFSDFYMEWVRQPPGKRLEWIAASRNKANDYTTEYSASVKGRFTVSRDTSKSSLYLQMNSLRAEDTAIYYCARDAHGKPFAYWGQGTTVTVSS
VL: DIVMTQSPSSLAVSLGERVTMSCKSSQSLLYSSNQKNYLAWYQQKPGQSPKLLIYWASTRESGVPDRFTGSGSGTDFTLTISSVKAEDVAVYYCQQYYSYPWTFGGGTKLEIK
notes: Human IgG1 backbone
Kd [1]: 0.0204 nM
koff [2]: 0.000291 s⁻¹
kon [2]: 1.07e+06 M⁻¹ s⁻¹
EC50 [3]: 12.9 nM

B2: ch11F11-1564 (bivalent bispecific antibody: chimeric 11F11 IgG with 1564 scFv on each heavy chain) (bispecific antibody, not shown: a dimerising Fc or GST)
heavy (part 1 of 2): B1 VH with V5Q, T71I, K78Q, S80I, S87A, T115L, S120A
heavy (part 2 of 2): GGGGSGGGGSGGGGSQSVLTQPPSASGTPGQRVTISCTGSSSNIGSNDVSWYQQLPGTAPKLLIYANSNRPSGVSDRFSGSKSGTSASLAISGLRSEDEADYYCGAWDDSLNGYVFGCGTKLTVLGGGGSGGGGSGGGGSGGGGSEVQLLESGGGLVQPGGSLRLSCAASGFTFSSYDMSWVRQAPGKCLEWVSAISYDNGNTYYADSVKGRFTISRDNSKNTLYLQMNSLRAEDTAVYYCAKGVLTTLMNWFDYWGQGTLVTVSS
light: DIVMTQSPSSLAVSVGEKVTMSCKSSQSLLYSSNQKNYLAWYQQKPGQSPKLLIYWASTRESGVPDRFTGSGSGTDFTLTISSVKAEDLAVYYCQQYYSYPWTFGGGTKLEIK
EC50 [4]: 22.7 nM
EC50 [5]: 1.5 nM
EC50 [6]: 2.48 nM and 2.21 nM

B6: hu11F11(ver.1) (antibody, human IgG1, V domains shown)
VH: B1 VH with V72I, T76D
VL: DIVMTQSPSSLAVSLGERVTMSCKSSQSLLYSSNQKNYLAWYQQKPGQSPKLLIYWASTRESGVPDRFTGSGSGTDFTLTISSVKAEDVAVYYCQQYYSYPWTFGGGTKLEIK
notes: Human IgG1 backbone
koff [10]: 5.36e-05 s⁻¹
kon [10]: 845000 M⁻¹ s⁻¹
EC50 [3]: 11.5 nM

B7: 1564 IgG (anti-IGF1R clone 1564, full IgG1 form) (antibody, V domains shown)
VH: EVQLLESGGGLVQPGGSLRLSCAASGFTFSSYDMSWVRQAPGKGLEWVSAISYDNGNTYYADSVKGRFTISRDNSKNTLYLQMNSLRAEDTAVYYCAKGVLTTLMNWFDYWGQGTLVTVSS
VL: QSVLTQPPSASGTPGQRVTISCTGSSSNIGSNDVSWYQQLPGTAPKLLIYANSNRPSGVPDRFSGSKSGTSASLAISGLRSEDEADYYCGAWDDSLNGYVFGGGTKLTVL
koff [14]: 2.53e-06 s⁻¹
koff [15]: 2.41e-06 s⁻¹
kon [15]: 902 M⁻¹ s⁻¹
EC50 [16]: 0.0823 nM
Kd [17]: 2.53 nM

Second part, the binder after the results:

Kd [1]: 0.0596 nM
koff [7]: 0.000173 s⁻¹
kon [7]: 1.19e+06 M⁻¹ s⁻¹
GeoMean, Internalization at 37° C. [8]: 3.18
EC50 [3]: 15.1 nM
B3: hu11F11(ver.2) (antibody, human IgG1, kappa, V domains shown)
VH: B1 VH with T76D
VL: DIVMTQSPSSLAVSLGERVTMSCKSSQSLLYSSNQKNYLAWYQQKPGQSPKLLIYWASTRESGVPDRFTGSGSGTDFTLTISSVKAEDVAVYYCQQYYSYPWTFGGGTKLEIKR
notes: also called hu11F11 WT; humanized antibody 11F11 (ver. 2)

binding result [9]: no binding
EC50 [4]: 33.8 nM
EC50 [5]: 1.27 nM
Kd [1]: 0.0247 nM
koff [10]: 0.000563 s⁻¹
kon [10]: 609000 M⁻¹ s⁻¹
EC50 [11]: 12.5 nM
EC50 [12]: 196 nM
EC50 [13]: 201 nM
B4: Ch11F11 (chimeric 11F11 antibody, human IgG1) (antibody, V domains shown)
VH: B1 VH with V5Q, T71I, K78Q, S80I, S87A, T115L, S120A
VL: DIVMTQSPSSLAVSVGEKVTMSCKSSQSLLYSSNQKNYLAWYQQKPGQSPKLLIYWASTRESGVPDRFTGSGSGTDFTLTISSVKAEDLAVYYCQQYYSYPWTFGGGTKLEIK
notes: Chimeric human IgG1

Kd [1]: 0.0316 nM
koff [7]: 0.000266 s⁻¹
kon [7]: 1.07e+06 M⁻¹ s⁻¹
EC50 [3]: 13.4 nM
B5: hu11F11(ver.3) (antibody, human IgG1, V domains shown)
VH: B1 VH with V72I
VL: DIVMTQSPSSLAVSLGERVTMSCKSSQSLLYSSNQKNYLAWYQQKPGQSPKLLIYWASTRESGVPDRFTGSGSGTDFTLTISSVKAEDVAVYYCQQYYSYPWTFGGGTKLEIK
notes: Human IgG1 backbone
